B1: Pistol ribozyme (parent)
chain: GGGUCGUUGUUCCAUAAUCGCGUGGAUAUGGCACGCAAGUUUCUACCGGGCACCGUAAAUGUCCGACUGGAGCCGUUCGGGCGGCUAUAAACAGACCUCAGGCCCGAAGCGUGGCGGCACCUGCCGCCGGUGGUAAAAAAGAUCGGAAGAGCACACGUCU

Variants of: B1
Test: aptazyme ON/OFF ratio, guanine; higher = stronger switching; co-transcriptional cleavage with and without guanine

| Variant | aptazyme ON/OFF ratio |
| --- | --- |
| U7G U8G G9U U10A U11G C12G C13G | 1.06 |
| U7G U8G G9C U11G C12G C13U | 1.18 |
| U7G U8G G9C U11G C12G C13G | 1.24 |
| U7G U8G G9C U11G C12G C13A | 1.17 |
| U7G U8G G9C U11A C12G C13U | 1.2 |
| U7G U8G G9C U11A C12G C13G | 1.07 |
| U7G U8G G9C U11A C12G C13A | 1.12 |
| U7G U8G G9C U10G U11G C12U C13U | 1.17 |
| U7G U8G G9C U10G U11G C12U C13G | 1.05 |
| U7G U8G G9C U10G U11G C12U C13A | 1.14 |
| U7G U8G G9U U10A U11C C13U | 1.07 |
| U7G U8G G9U U10A U11C C13G | 1.09 |
| U7G U8G G9U U10A U11C C13A | 1.11 |
| U7G U8G G9U U10C U11C C12G C13A | 1.19 |
| U7G U8G G9U U10C U11C C12G C13G | 1.12 |
| U7G U8G G9U U10C U11C C12G C13U | 1.33 |
| U7G U8G G9U U10C U11G C12U | 1.22 |
| U7G U8G G9U U10C U11G C12G | 1.39 |
| U7G U8G G9U U10C U11G C12A | 1.32 |
| U7G U8G G9U U10A C12G C13G | 1.09 |
| U7G U8G G9U U10A C12G C13U | 1.13 |
| U7G U8G G9U U10A C12G C13A | 1.07 |
| U7G U8G G9C U10G U11G C12A C13A | 1.09 |
| U7G U8G G9C U10G U11G C12A C13G | 1.15 |

| Variant | aptazyme ON/OFF ratio |
| --- | --- |
| U7G U8G G9C U10G U11G C12A C13U | 1.09 |
| U7G U8G G9U U10G C12G C13A | 1.13 |
| U7G U8G G9U U10G C12G C13G | 1.15 |
| U7G U8G G9U U10G C12G C13U | 1.35 |
| U7G U8G G9C U10C U11C C12A C13A | 1.05 |
| U7G U8G G9C U10C U11C C12A C13G | 1.14 |
| U7G U8G G9C U10C U11C C12A C13U | 1.1 |
| U7G U8G G9U U10C U11C C13G | 1.21 |
| U7G U8G G9U U10C U11C C13U | 1.37 |
| U7G U8G G9U U10C U11C C13A | 1.28 |
| U7G U8G G9C U10G U11A | 1.32 |
| U7G U8G G9C U10G U11G | 1.26 |
| U7G U8G G9C U10G U11C | 1.06 |
| U7G U8G G9U U10A U11C C12A C13A | 1.1 |
| U7G U8G G9U U10A U11C C12A C13G | 1.08 |
| U7G U8G G9U U10A U11C C12A C13U | 1.17 |
| U7G U8G G9U C12G C13G | 1.31 |
| U7G U8G G9U C12G C13A | 1.3 |
| U7G U8G G9U C12G C13U | 1.27 |
| U7G U8G G9C U11G C13U | 1.49 |
| U7G U8G G9C U11G C13G | 1.16 |
| U7G U8G G9C U11G C13A | 1.3 |
| U7G U8G G9U | 1.51 |
| U7G U8G G9C U11G | 2.2 |

| Variant | aptazyme ON/OFF ratio |
| --- | --- |
| U7G U8G G9C U11A | 4.32 |
| U7G U8G G9C U11C | 2.07 |
| U7G U8G G9C U11G C12A C13G | 1.23 |
| U7G U8G G9C U11G C12A C13A | 1.14 |
| U7G U8G G9C U11G C12A C13U | 1.3 |
| U7G U8G G9U U10C U11C C12U C13A | 1.18 |
| U7G U8G G9U U10C U11C C12U C13U | 1.37 |
| U7G U8G G9U U10C U11C C12U C13G | 1.41 |
| U7G U8G G9C U10G U11G C12G C13U | 1.1 |
| U7G U8G G9C U10G U11G C12G C13G | 1.17 |
| U7G U8G G9C U10G U11G C12G C13A | 1.06 |
| U7G U8G G9C U10C U11A C12G C13U | 1.24 |
| U7G U8G G9C U10C U11A C12G C13G | 1.24 |
| U7G U8G G9C U10C U11A C12G C13A | 1.28 |
| U7G U8G G9U C12A C13G | 1.1 |
| U7G U8G G9U C12A C13A | 1.17 |
| U7G U8G G9U C12A C13U | 1.06 |
| U7G U8G G9C U10G C12G C13G | 1.12 |
| U7G U8G G9C U10G C12G C13A | 1.11 |
| U7G U8G G9C U10G C12G C13U | 1.2 |
| U7G U8G G9C U10G U11A C12A | 1.17 |
| U7G U8G G9C U10G U11A C12G | 1.16 |
| U7G U8G G9C U10G U11A C12U | 1.23 |
| U7G U8G G9C U10C U11G C12A | 1.22 |

| Variant | aptazyme ON/OFF ratio |
| --- | --- |
| U7G U8G G9C U10C U11G C12U | 1.37 |
| U7G U8G G9C U10C U11G C12G | 1.23 |
| U7G U8G G9U U10C C12A C13U | 1.4 |
| U7G U8G G9U U10C C12A C13G | 1.29 |
| U7G U8G G9U U10C C12A C13A | 1.31 |
| U7G U8G G9U U10C U11A C12A | 1.28 |
| U7G U8G G9U U10C U11A C12U | 1.28 |
| U7G U8G G9U U10C U11A C12G | 1.25 |
| U7G U8G G9U U10A C12U | 1.29 |
| U7G U8G G9U U10A C12G | 1.21 |
| U7G U8G G9U U10A C12A | 1.28 |
| U7G U8G G9C U11A C12A C13A | 1.14 |
| U7G U8G G9C U11A C12A C13U | 1.16 |
| U7G U8G G9C U11A C12A C13G | 1.05 |
| U7G U8G G9C U10C U11G C13A | 1.38 |
| U7G U8G G9C U10C U11G C13G | 1.27 |
| U7G U8G G9C U10C U11G C13U | 1.3 |
| U7G U8G G9C U10G U11C C13U | 1.05 |
| U7G U8G G9C U10G U11C C13A | 1.09 |
| U7G U8G G9C U10G U11C C13G | 1.08 |
| U7G U8G G9U U10C U11G C13A | 1.22 |
| U7G U8G G9U U10C U11G C13U | 1.28 |
| U7G U8G G9U U10C U11G C13G | 1.21 |
| U7G U8G G9C U10C U11C C12U C13U | 1.06 |

| Variant | aptazyme ON/OFF ratio |
| --- | --- |
| U7G U8G G9C U10C U11C C12U C13G | 1.23 |
| U7G U8G G9C U10C U11C C12U C13A | 1.08 |
| U7G U8G G9C U10G C12U C13G | 1.05 |
| U7G U8G G9C U10G C12U C13U | 1.09 |
| U7G U8G G9C U10G C12U C13A | 1.06 |
| U7G U8G G9U U10C U11A C13G | 1.23 |
| U7G U8G G9U U10C U11A C13U | 1.23 |
| U7G U8G G9U U10C U11A C13A | 1.38 |
| U7G U8G G9U U10A C13G | 1.1 |
| U7G U8G G9U U10A C13A | 1.13 |
| U7G U8G G9U U10A C13U | 1.31 |
| U7G U8G G9U U10C U11A C12A C13G | 1.24 |
| U7G U8G G9U U10C U11A C12A C13A | 1.3 |
| U7G U8G G9U U10C U11A C12A C13U | 1.33 |
| U7G U8G G9C U10G C12A C13A | 1.07 |
| U7G U8G G9C U10G C12A C13G | 1.06 |
| U7G U8G G9C U10G C12A C13U | 1.14 |
| U7G U8G G9C U11C C12U | 2.49 |
| U7G U8G G9C U11C C12G | 3 |
| U7G U8G G9C U11C C12A | 5.2 |
| U7G U8G G9U U10A U11A C12A C13U | 1.29 |
| U7G U8G G9U U10A U11A C12A C13A | 1.02 |
| U7G U8G G9U U10A U11A C12A C13G | 1.13 |
| U7G U8G G9U U10A U11C C12U C13U | 1.29 |

| Variant | aptazyme ON/OFF ratio |
| --- | --- |
| U7G U8G G9U U10A U11C C12U C13G | 1.08 |
| U7G U8G G9U U10A U11C C12U C13A | 1.16 |
| U7G U8G G9C U11A C12U C13G | 1.15 |
| U7G U8G G9C U11A C12U C13U | 1.26 |
| U7G U8G G9C U11A C12U C13A | 1.13 |
| U7G U8G G9U U10C U11A C12U C13A | 1.35 |
| U7G U8G G9U U10C U11A C12U C13U | 1.36 |
| U7G U8G G9U U10C U11A C12U C13G | 1.37 |
| U7G U8G G9U U10C C12A | 1.38 |
| U7G U8G G9U U10C C12G | 1.22 |
| U7G U8G G9U U10C C12U | 1.28 |
| U7G U8G G9C U10C U11A C13U | 1.41 |
| U7G U8G G9C U10C U11A C13A | 1.21 |
| U7G U8G G9C U10C U11A C13G | 1.17 |
| U7G U8G G9C U10G C13A | 1.31 |
| U7G U8G G9C U10G C13G | 1.28 |
| U7G U8G G9C U10G C13U | 1.26 |
| U7G U8G G9U U10C C12U C13U | 1.35 |
| U7G U8G G9U U10C C12U C13G | 1.36 |
| U7G U8G G9U U10C C12U C13A | 1.22 |
| U7G U8G G9U U10A U11G C12A C13G | 1.04 |
| U7G U8G G9U U10A U11G C12A C13A | 1.1 |
| U7G U8G G9U U10A U11G C12A C13U | 1.11 |
| U7G U8G G9C U10G U11C C12G C13U | 1.16 |

| Variant | aptazyme ON/OFF ratio |
| --- | --- |
| U7G U8G G9C U10G U11C C12G C13G | 1.05 |
| U7G U8G G9C U10G U11C C12G C13A | 1.19 |
| U7G U8G G9U U10C U11G C12G C13G | 1.15 |
| U7G U8G G9U U10C U11G C12G C13U | 1.26 |
| U7G U8G G9U U10C U11G C12G C13A | 1.16 |
| U7G U8G G9U U10C C12G C13A | 1.24 |
| U7G U8G G9U U10C C12G C13U | 1.25 |
| U7G U8G G9U U10C C12G C13G | 1.1 |
| U7G U8G G9C U10C U11C C12G C13A | 1.05 |
| U7G U8G G9C U10C U11C C12G C13U | 1.04 |
| U7G U8G G9C U10C U11C C12G C13G | 1.06 |
| U7G U8G G9C U10G U11G C12U | 1.19 |
| U7G U8G G9C U10G U11G C12A | 1.11 |
| U7G U8G G9C U10G U11G C12G | 1.15 |
| U7G U8G G9U U10C U11G C12A C13U | 1.28 |
| U7G U8G G9U U10C U11G C12A C13G | 1.15 |
| U7G U8G G9U U10C U11G C12A C13A | 1.12 |
| U7G U8G G9C U10C U11G C12A C13A | 1.17 |
| U7G U8G G9C U10C U11G C12A C13G | 1.31 |
| U7G U8G G9C U10C U11G C12A C13U | 1.3 |
| U7G U8G G9C U10G U11A C13A | 1.1 |
| U7G U8G G9C U10G U11A C13G | 1.05 |
| U7G U8G G9C U10G U11A C13U | 1.12 |

From the RNAGym collection of RNA variant scans (doi:10.1021/acssynbio.7b00057)
